Measurements from patent US20160228506A1, “Compositions and Formulations for Prevention and Reduction of Tumorigenesis, Cancer Cell Proliferation and Invasion, and Methods of Production and Use Thereof in Cancer Treatment” (PRONUTRIA, INC., priority 2013, published 2016).

Experiments:
pH solubility = type: physicochemical; settings: for pH Range where Protein is >80% detected as Soluble and A650 <1 OD: Low: lower pH; for pH Range where Protein is >80% detected as Soluble and A650 <1 OD: High: upper pH
Method: pH Solubility. […] Protein was either lyophilized and then resuspended in buffer cocktail mixtures, or concentrated and then spiked into buffer cocktail mixtures at a final protein concentration of 5 to 30 mg/ml. As a control, protein was also dissolved in a solution of 8 M urea. Protein solutions were shaken for 10 min at room temperature. Turbidity of proteins was determined by measuring the absorbance of protein solutions at 650 nm. The protein solution was then centrifuged for 10 min at 1100×g to pellet undissolved or precipitated protein. The soluble protein fraction (supernatant) was sampled and protein concentration was measured by one or more of the following methods: Coomassie Plus Protein Assay (Pierce), Chip electrophoresis, gel electrophoresis, and/or absorbance at 280 nm. The pH range over which select proteins remained greater than 80% soluble as determined by Bradford and the A650 value are listed in Table E31C.

[1] = Thermostability, temperature of aggregation (ProteoStat Thermal Shift); type: physicochemical; parameters: key to Tagg: temperature in °C; settings: for Tagg (pH 7.1): Table E31D, heated 25° C. to 95° C.
Method: The thermostability of proteins in a buffer cocktail of Citric Acid and Dibasic Sodium Phosphate over a pH range of 2.8 to 7.1 (preparation described above in Table E31B) was determined using the ProteoStat® Thermal Shift Stability Kit (Enzo Life Sciences) according to the manufacturer's standard protocol. Briefly, protein solutions (˜10 mg/ml) containing 1× ProteoStat TS Detection Reagent were heated from 25° C. to 95° C. at a rate of 0.5° C. per 30 sec using a real-time PCR (rtPCR) thermocycler (BioRad) equipped with a plate reader (SynergyMx, Biotek) while monitoring the fluorescence with a Texas Red filter.

[2] = Intact half-life during simulated gastric fluid (SGF) digestion; settings: for SGF Half-life (t½): SGF pH 1.5, pepsin:polypeptide 1:20 w/w, 37° C., intact protein; for Half-life: purified proteins, chip electrophoresis
Method: In this experiment the nutritive polypeptide was exposed to a series of proteases that are active in the stomach (pepsin) and intestine (trypsin and chymotrypsin), and the presence of intact protein was measured over time. Specifically, the nutritive polypeptide was first treated at a concentration of 2 g/L with simulated gastric fluid (SGF) (0.03 M NaCl, titrated with HCl to pH 1.5 with a final pepsin:polypeptide ratio of 1:20 w/w) at 37° C. Time points were sampled from the reaction and quenched by addition of 0.2 M Na2CO3. […] Time points were sampled from the reaction and quenched by addition of Trypsin/Chymotrypsin Inhibitor (Sigma) solution until 240 min.
Time point samples were analyzed for intact protein by chip electrophoresis, polyacrylamide gel electrophoresis, or western blot. For chip electrophoresis (Labchip GX II), samples were analyzed using a HT Low MW Protein Express LabChip® Kit (following the manufacturer's protocol). A protein ladder was loaded every 12 samples for molecular weight determination (kDa) and quantification. For polyacrylamide gel electrophoresis, samples (1 μg) were separated on a NuPAGE® Novex® Bis-Tris Precast gel (Life Technologies) according to the manufacturer's protocol. The gel was stained using SimplyBlue™ SafeStain (Invitrogen) and imaged using a Chemidoc XRS+ (BioRad) or transferred onto nitrocellulose membranes using the iBlot® Dry Blotting System (Life Technologies) and iBlot® Western Detection Kit (Life Technologies) according to the manufacturer's protocol. Proteins were detected by blotting with Anti-His [C-term]-HRP antibody diluted 3:5000 in Blok™-PO Blocking Buffer using the SNAP I.d.® Protein Detection System (Millipore) according to the manufacturer's protocol. Blots were treated with Luminata Classico Western HRP Substrate (Millipore) according to the manufacturer's protocol and imaged using chemiluminescent detection on the Molecular Imager® Gel Doc™ XR+ System (Bio-Rad). Quantification of intact protein was determined by densitometry using ImageLab (BioRad). For all analysis methods the relative concentration of the polypeptide at each time point (if detected) was plotted overtime and fit to an exponential curve to calculate the intact half-life.
Specifically, the t=0 (enzyme-free control) and t=2 min samples from the SGF digest were analyzed for intact protein as described by chip electrophoresis, SDS-PAGE, western blot, and/or LC-MS/MS. Relative quantities of polypeptides at each time point were determined and the percentage of intact protein remaining at t=2 was determined. Intact half-life values determined using this method are reported as greater or less than 2 min to indicate more or less than 50% of the protein remained intact at t=2 min, respectively.

[3] = SGF digest of 168 nutritive polypeptide library, intact protein by LC-MS/MS; type: in vitro ADME; settings: for % Intact Protein at 10 min: 168 nutritive polypeptide library SGF digest, LC-MS/MS spectral counts; for % Remaining at 10 min: 168 nutritive polypeptide library, LC-MS/MS
Method in brief: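 Spectral-count ratios (10 min vs 0 min, peak gel fraction plus neighbours) give the percent of each protein left intact after SGF digestion of a pooled, IMAC-purified 168-member recombinant library. Samples were gel-fractionated, trypsinised in-gel and run on Orbitrap nanoLC-MS/MS, requiring two unique peptides at 1% FDR.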

Molecule | pH Range where Protein is >80% detected as Soluble and A650 <1 OD: Low (pH solubility) | pH Range where Protein is >80% detected as Soluble and A650 <1 OD: High (pH solubility) | Tagg ([1]; pH 2.8) | Tagg ([1]; pH 3.7) | Tagg ([1]; pH 3.9) | Tagg ([1]; pH 4.3) | Tagg ([1]; pH 4.6) | Tagg ([1]; pH 5.0) | Tagg ([1]; pH 5.6) | Tagg ([1]; pH 6.0) | Tagg ([1]; pH 6.5) | Tagg ([1]; pH 7.1) | SGF Half-life (t½) [2] | Tagg (pH 7.1) [1] | pH Range where Protein is >80% detected as Soluble and A650 <1 OD: Other (pH solubility) | % Intact Protein at 10 min [3] | % Remaining at 10 min [3] | Half-life [2]
SEQID-00100: nutritive polypeptide (protein, listed as Lactobacillus acidophilus) MSEEEIFNKIKDLIADNFEVDKDSITENTNFMNDLDADSIDLVEFILQLEDEFGAEIPDDEAEKIKTVGDAVSYIKSHQG | 4.3 | 7.1 | 95 | 95 | 95 | 83^ | 84^ | 95 | 95 | 95 | 95 | >95 | 2 min |  |  |  |  | 
SEQID-00226: nutritive polypeptide (protein, listed as Bos taurus) QLQALQAQLTDTKKKVDDDLGTIENLEEAKKKLLKDVEVLSQRLEEKALAYDKLEKTKTRLQQELDDLLVDLDHQRQIVSNLEKKQKKFDQLLAEEKNIS | 2.6 | 9.1 |  |  |  |  |  |  |  |  |  |  | 0.7 min | >95 |  |  |  | 
SEQID-00241: nutritive polypeptide (protein, listed as Bos taurus) SELKKDIDDLELTLAKVEKEKHATENKVKNLTEEMAGLDETIAKLTKEKKALQEAHQQTLDDLQAEEDKVNTLTKAKTKLEQQVDDLEGSLEQEKKLRMDLERAKRKLEGDLKLA | 4.3 | 9.1 |  |  |  |  |  |  |  |  |  |  | 0.3 min | >95 |  |  |  | 
SEQID-00265: nutritive polypeptide (protein, listed as Bos taurus) SEGDRLRVELAEKANKLQNELDNVSTLLEEAEKKGIKFAKDAAGLESQLQDTQELLQEETRQKLNLSSRIRQLEEERSSLQEQQEEEEEARRSLEKQLQALQAQLTDTKKKVDDDLGTIENLEEAKKKLLKDVEVLSQRLEEKALAYDKLEKTKTRLQQELDDLLVDLDHQRQIVSNLEKKQKKFDQLLAEEKNISARYAEERDRAEAEAREKETKALSLARALEEALEAREEAERQNKQLRADMEDLMSSKDDVGKNVHELEKSKRALE | 5.1 | 9.1 |  |  |  |  |  |  |  |  |  |  | 29 min | >95 | 3 |  |  | 
SEQID-00269: nutritive polypeptide (protein) DLKKKLDDDLGTLENLEELKKKLLKDLELLSQRLEELALAYDKLEKTKTRLQQELDDLLLDLDHQ | 7.2 | 9.1 |  |  |  |  |  |  |  |  |  |  | 41 min | >95 |  |  |  | 
SEQID-00287: nutritive polypeptide (protein, listed as Saccharomyces cerevisiae, source: /note="strain ATCC 204508 / S288c", nutritive polypeptide) LVLGALLDTSHKFRNLDKDLCEKCAKCISMIGVLDVTKHEFKRTTYSENEVYDLNDSVQTIKFLIWVINDILV | 6.2 | 9.1 |  |  |  |  |  |  |  |  |  |  | 3 min |  | 2.6 |  |  | 
SEQID-00502: protein of the 168 nutritive polypeptide library (protein, Glycine max, protein of the 168 nutritive polypeptide library) MASQSNTKSVHDFTVKDARGNNVNLADYKGKVLLIVNVASQCGLTNSNYTELNQLYEKYKGKGLEILAFPCNQFGAQEPGTNEEIVEFACTRFKAEFPIFDKVDVNGDNAAPLYKFLKSSKGGLFGDSIKWNFSKFLVDKDGNVVDRYAPTTSPLSIEKDIKKLLDA | 7.1 |  | 95 | 95 |  | 95^ | 95^ | 77 | 77 | 76.5 | 78.5 | 95 | 0.6 min |  | 2.8 | 9.7% | 9.7% | 36 s
SEQID-00510: nutritive polypeptide naturally produced in Turkey, recombinantly expressed in E. coli (protein, Meleagris gallopavo, nutritive polypeptide naturally produced in Turkey, recombinantly expressed in E. coli) MVPIAEKMAEKQEEPSNTQNGEPDNAEEGEGKKKKKVKREDLPPFEIVTGERLPAIFFKFQFRNVEYSSGRNKTFLCYVVETQGKESTTSRGYLEDEHAASHAEIAFFNTILPKCESSLRYNITWYVSSSPCVTCADRISETLRKNKNLRLTIMVGRLFMWEEPEMQAALKKMKSAGCKLRIMKPQDFEYVWQNFVEQEEGEEAKAFVPWEDIQENFQYYEEKLAEILQ | 6.5 | 7.1 |  |  |  |  |  |  |  |  |  |  | 0.3 min | 57.5 | 2.8 | 13.4% | 13.4% | 18 s
SEQID-00511: protein of the 168 nutritive polypeptide library (protein, Arthrospira platensis C1, protein of the 168 nutritive polypeptide library) MVLFGFGKKKSLPKPEEALPGRDRVMSVPDRHYINGNPLKPPFPEGMEQAVFGLGCFWGAERKFWQQQGVFSTAVGYAGGYTKNPTYEEVCSGMTGHTEVVLVVFDPKVISYTDLLKLFWESHNPTQGMRQGNDTGTQYRSAIYTYSDEQQRLALASRDRYQQALSAASYGEITTEIAPAQEFYYAEAYHQQYLGKNPNGYCGLGGTGVGCPAMTETSV | 5.6 | 7.1 |  |  |  |  |  |  |  | 39.5 | 45.5 | 42 | 0.3 min |  |  | 4.3% | 4.3% | 18 s
SEQID-00622: protein of the 168 nutritive polypeptide library (protein, listed as Oryza sativa, source: /note="subsp. japonica", protein of the 168 nutritive polypeptide library) MASEGAVSPAFAYTVVYVKDVAKSAAFYSAAFGYTVRRLDQSHKWAELESGTTTIAFTPLHQRETDALTGAVQLPDSAGERGPVEICFDYADVDAAYRRAVDSGAVPVSPPEQKSWGQKVGYVRDIDGIIVRMGSHVRA | 2.8 | 7.1 | 58.5 | 42 | 42 | 43.5 | 43.5 | 42.5 | 45.5 | 46 | 47 | 95 | 6.6 min |  |  | 43.6% | 43.6% | 396 s
